Target: T1, (H3.3-H4)2 tetramers (UniProt P84243 1-136; P62805 1-103)
T1 construct: Histone H3.3; Histone H4; also called H3.3-H4 tetramer; copies: 2 + 2
Test: pull-down; GST fusion proteins immobilized on Glutathione Sepharose 4 Fast Flow, histone tetramers added in 20 mM HEPES-HCl pH 7.9, 500 mM NaCl, 1 mM EDTA, 5 mM 2-mercaptoethanol, 0.1% Nonidet P-40, overnight at 4 °C; Coomassie staining
Conditions: both partners purified

Row | binding result | Binder
1 | binds | GST-UBN1 (1–213) (domain or fragment, source: E. coli, purified by GST tag) MSEPHRVQFTSLPGSLNPAFLKKSRKEEAGAGEQHQDCEPAAAAVRITLTLFEPDHKRCPEFFYPELVKNIRGKVKGLQPGDKKKDLSDPFNDEEKERHKVEALARKFEEKYGGKKRRKDRIQDLIDMGYGYDESDSFIDNSEAYDELVPASLTTKYGGFYINSGTLQFRQASESEDDFIKEKKKKSPKKRKLKEGGEKIKKKKKDDTYDKEK
2 | binds | GST-UBN2 (109–291) (domain or fragment, UBN2, human, residues 109-291, contains the HRD domain; also called UBN2 (aa109-291); GST-UBN2-(aa109-291); source: E. coli, purified by GST tag) PRESASRAEQPPRPPRETVRLELVLKDPTDESCVEFSYPELLLCGEQRKKLIHTEDPFNDEHQERQEVEMLAKKFEMKYGGKPRKHRKDRLQDLIDIGFGYDETDPFIDNSEAYDELVPASLTTKYGGFYINTGTLQFRQASDTEEDDITDNQKHKPPKVPKIKEDDIEMKKRKRKEEGEKEK
